Experimental findings from US20220259605A1 (OXFORD UNIVERSITY INNOVATION, published 2022) are described below.

For the assay, the target named is T1, human CEACAM5 protein (SinoBiological) (human, UniProt P06731 35-685).
T1 construct: also called human CEA protein; carcinoembryonic antigen
T1 sequence: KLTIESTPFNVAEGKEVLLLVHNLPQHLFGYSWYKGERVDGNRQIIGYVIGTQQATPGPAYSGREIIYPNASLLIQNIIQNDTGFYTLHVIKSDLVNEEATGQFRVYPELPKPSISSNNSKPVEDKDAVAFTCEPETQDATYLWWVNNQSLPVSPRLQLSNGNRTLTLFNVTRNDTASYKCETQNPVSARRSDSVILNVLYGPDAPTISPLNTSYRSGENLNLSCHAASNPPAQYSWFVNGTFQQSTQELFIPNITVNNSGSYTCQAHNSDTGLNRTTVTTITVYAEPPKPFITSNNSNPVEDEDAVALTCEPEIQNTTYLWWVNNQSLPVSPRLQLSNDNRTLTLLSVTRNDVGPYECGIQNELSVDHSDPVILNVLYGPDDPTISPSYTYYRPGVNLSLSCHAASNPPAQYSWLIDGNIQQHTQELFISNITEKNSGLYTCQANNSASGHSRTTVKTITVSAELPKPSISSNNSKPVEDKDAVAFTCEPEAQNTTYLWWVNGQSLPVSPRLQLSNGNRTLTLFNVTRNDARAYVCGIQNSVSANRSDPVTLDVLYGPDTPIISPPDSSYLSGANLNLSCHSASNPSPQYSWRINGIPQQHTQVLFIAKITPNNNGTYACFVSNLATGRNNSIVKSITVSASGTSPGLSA
Put plainly: biological agglutination test.

B1: C43 anti-CEA nanobody, surface-displayed on E. coli through the pNV intimin display system (VHH)
VHH: EVQLVESGGGLVQAGGSLTLSCTSSTLTFTPYRMGWYRQTPGKQRDLVADISPGDGSTKNYAGFAQGRFTISRDNIKNTVYLQMNDLKPEDTAVYYCNTYVAFVGRARTWGQGTQVTVSS
notes: domain: β-intimin domain; also called pNVC43; pNVC43_sfGFP
For the molecule B1, the binding result is on record as “binds”.
